From patent publication US20050276800A1 (MEDICAL RESEARCH COUNCIL, published 2005) come the findings set out here.

For test [1], the target named is T1, LexA DBD (made from the empty pBTM 116 vector) (UniProt P0A7C2 1-202, limits assumed).
T1 construct: domain: LexA DBD; Bait-only control in the yeast two-hybrid assay
T1 sequence (looked up): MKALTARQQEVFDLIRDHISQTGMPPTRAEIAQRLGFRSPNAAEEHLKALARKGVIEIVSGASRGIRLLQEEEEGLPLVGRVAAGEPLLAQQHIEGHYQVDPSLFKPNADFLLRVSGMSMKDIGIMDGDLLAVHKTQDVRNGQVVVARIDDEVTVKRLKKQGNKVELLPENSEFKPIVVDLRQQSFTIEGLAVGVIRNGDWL
Kind of test: yeast two-hybrid (His growth, β-gal); data not shown.

For test [2], the target named is T2, Recombinant oncogenic HRAS (G12V; residues 1-166) (human, UniProt P01112 1-166).
T2 construct: range 1-166; ELISA and BIAcore: purified from bacteria and loaded with GppNp, a non-hydrolysable GTP analogue; Mammalian two-hybrid: codons 1-166 fused C-terminal to the GAL4 DBD (pM1-RASG12V); Yeast two-hybrid: truncated HRASG12V fused to the LexA DBD (pBTM116-RASG12V); The DBD parts are not written into the chain; also called HaRASG12V; Ha-RASG12V
Kind of test: surface plasmon resonance (BIAcore 2000), HRASG12V-GppNp immobilised at about 1500 RU, purified scFv injected.

Test [3] concerns the target T2, Recombinant oncogenic HRAS (G12V; …). Kind of test: SPR (BIAcore 2000); HRASG12V-GppNp immobilised on CM5 chip, purified scFv as analyte; BIAcore, purified bacterial scFv in vitro; weak micromolar binding.

B1: anti-RAS scFv I21 (scFv)
scFv: EVQLLESGGGLVQPGGSLRLSCAASGFTFSSYAMSWVRQAPGKGLEWVSTISYGGSNTNYADSVKARFTISRDNSKNTLYLQMNSLRAEDTAVYYCAKGNNAFDYWGQGTLVTVSSGGGGSGGGGSGGGGSTDIQMTQSPSSLSASVGDRVTITCRASQSISSYLNWYQQKPGKAPKLLIYNASALQSGVPSRFSGSGSGTDFTLTISSLQPEDFATYYCQQYTSTPRTFGQGTKVEIKR
notes: also called ICAb I21
As for B1, the binding result in test [1] is on record as “no binding”. Besides, in test [2], the equilibrium dissociation constant (Kd) turned out to be 1.31 µM, the dissociation rate constant (koff) worked out at 0.0212 s⁻¹ and the kon is 16700 M⁻¹ s⁻¹. For the same molecule, the Kd in test [3] was found to be 2.16 µM.
